Where no end group is shown, it is not given here. Atto 488 = fluorescent body linked to the N terminus
Biological target: T1, actin filament in fixed Xenopus laevis XTC cells (Xenopus laevis)
T1 construct: whole, on cells; Polymer of actin in fixed cells
Experiment: speckle lifetime distribution in fixed XTC cells, 10 ms/frame at 100 Hz, single exponential fit (FIG. 9a)

B1: Lifeact peptide (sequence number 19) with an Atto 488 fluorescent body linked to an N terminus (peptide)
peptide: {Atto 488}-MGVADLIKKFESISKEE
notes: Purchased from Sigma-Aldrich; also called Atto488-Lifeact; Atto 488-Lifeact
With B1 as the binder, how does the half-life read?
Its half-life is 0.023 s.

— patent US10858688 (KYOTO UNIVERSITY, dated 2020)
